Results: publication PMC3375900

Molecular target: Hrs (rat (endogenous in rat brain cytosol)) (UniProt Q9JJ50)
Test: co-IP

UniProt Q9JJ50, sequence (Q9JJ50 whole entry): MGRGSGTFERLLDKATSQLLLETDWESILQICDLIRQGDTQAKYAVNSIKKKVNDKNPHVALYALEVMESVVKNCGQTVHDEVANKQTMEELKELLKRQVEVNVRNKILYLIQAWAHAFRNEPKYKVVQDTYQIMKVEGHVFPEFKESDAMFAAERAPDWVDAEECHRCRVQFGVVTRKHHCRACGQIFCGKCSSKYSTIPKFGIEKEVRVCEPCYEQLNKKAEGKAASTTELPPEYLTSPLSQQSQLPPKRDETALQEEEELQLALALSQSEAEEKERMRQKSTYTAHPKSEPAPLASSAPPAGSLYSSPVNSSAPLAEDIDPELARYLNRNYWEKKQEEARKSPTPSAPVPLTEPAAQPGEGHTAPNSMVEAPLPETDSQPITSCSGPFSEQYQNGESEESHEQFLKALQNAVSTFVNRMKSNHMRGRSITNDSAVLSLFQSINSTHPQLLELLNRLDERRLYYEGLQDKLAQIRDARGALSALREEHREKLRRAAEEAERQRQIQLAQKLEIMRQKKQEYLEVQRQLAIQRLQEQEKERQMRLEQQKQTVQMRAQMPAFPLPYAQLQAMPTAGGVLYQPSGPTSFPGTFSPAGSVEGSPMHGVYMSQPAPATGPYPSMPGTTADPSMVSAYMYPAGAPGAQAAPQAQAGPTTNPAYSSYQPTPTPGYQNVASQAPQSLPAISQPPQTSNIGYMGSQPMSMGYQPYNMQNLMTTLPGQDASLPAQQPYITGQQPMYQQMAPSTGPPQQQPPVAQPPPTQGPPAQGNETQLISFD

signal-transducing adaptor molecule (STAM) (from UniProt Q5XHY7 1-523) (natural protein)
percent of STAM remaining in the cytosol after immunodepletion of Hrs: 16.5%
